Results reported in paper PMC8053092, “Structural basis for substrate recognition and cleavage by the dimerization-dependent CRISPR–Cas12f nuclease” (Nucleic Acids Research, 2020).

Columns and labels:
[1] = biological target: the molecule itself; test: cryo-EM structure; Cas12f D510A with sgRNA (222 nt) and 60-bp target dsDNA (TTTA PAM), ratio 1:1.2:1.3, 37°C, purified by SEC in 25 mM Tris-HCl pH 7.6, 150 mM NaCl, 2 mM DTT, 1 mM MgCl2; 3.1 Å
[2] = biological target: the molecule itself; test: cryo-EM structure; Cas12f with sgRNA, ratio 1:1.2, 37°C for 30 min in 25 mM Tris-HCl pH 7.6, 150 mM NaCl, 2 mM DTT, 1 mM MgCl2; no target DNA; 3.9 Å
[3] = biological target: T1, Un1Cas12f1 D510A (Cas14a1; catalytically inactive) (UniProt A0A482D308 1-529, D510A); test: cryo-EM (3.1 A); SEC; 1 mM Mg2+; Complex assembly in 25 mM Tris-HCl pH 7.6, 150 mM NaCl, 2 mM DTT, 1 mM MgCl2, 37 C 30 min; SEC in same buffer; settings: protein: recombinant; tags: N-terminal 10xHis-MBP removed by TEV; chain copies: 2; sgRNA; target and non-target DNA strands blunt 60 bp; guide:target heteroduplex 19-20 bp
T1 sequence: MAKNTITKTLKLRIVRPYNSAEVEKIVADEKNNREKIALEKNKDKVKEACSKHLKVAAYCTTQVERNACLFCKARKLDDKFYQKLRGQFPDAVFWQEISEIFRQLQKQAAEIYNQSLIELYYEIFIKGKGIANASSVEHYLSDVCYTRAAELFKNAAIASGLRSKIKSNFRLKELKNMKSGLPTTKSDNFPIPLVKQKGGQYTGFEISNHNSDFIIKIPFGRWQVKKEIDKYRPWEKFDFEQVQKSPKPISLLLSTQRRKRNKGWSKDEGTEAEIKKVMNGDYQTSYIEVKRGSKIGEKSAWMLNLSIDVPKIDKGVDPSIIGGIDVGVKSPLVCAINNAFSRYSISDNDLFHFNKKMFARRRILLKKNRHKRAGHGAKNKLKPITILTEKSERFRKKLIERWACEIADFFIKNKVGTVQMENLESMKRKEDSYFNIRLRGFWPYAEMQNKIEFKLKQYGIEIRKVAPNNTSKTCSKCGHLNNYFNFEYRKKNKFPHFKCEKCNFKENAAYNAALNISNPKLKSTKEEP

[4] = biological target: T2, Un1Cas12f1 (Cas14a1) (UniProt A0A482D308 1-529); test: cryo-EM (3.9 A); SEC; 1 mM Mg2+; no target DNA; Complex assembly in 25 mM Tris-HCl pH 7.6, 150 mM NaCl, 2 mM DTT, 1 mM MgCl2, 37 C 30 min; SEC in same buffer; settings: protein: recombinant; tags: N-terminal 10xHis-MBP removed by TEV; chain copies: 2; four stem-loops, two AR:R duplexes; 1 copy per Cas12f dimer
T2 sequence: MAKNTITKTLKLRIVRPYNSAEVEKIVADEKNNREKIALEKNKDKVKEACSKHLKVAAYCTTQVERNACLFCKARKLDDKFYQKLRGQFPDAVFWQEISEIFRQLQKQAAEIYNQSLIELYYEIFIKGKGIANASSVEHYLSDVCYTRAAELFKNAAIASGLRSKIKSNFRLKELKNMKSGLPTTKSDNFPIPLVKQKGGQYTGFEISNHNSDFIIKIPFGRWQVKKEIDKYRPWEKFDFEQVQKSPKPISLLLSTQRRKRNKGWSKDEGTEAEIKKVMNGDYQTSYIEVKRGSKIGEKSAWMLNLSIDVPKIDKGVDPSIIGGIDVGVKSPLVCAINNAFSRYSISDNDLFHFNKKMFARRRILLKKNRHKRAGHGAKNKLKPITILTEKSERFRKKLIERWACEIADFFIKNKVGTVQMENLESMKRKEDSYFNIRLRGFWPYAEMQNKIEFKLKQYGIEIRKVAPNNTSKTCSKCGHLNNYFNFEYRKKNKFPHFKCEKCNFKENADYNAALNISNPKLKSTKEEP

B1: Un1Cas12f1 D510A (inactive Cas12f mutant used for the Cas12f-sgRNA-target DNA ternary complex) (enzyme, UniProt A0A482D308 1-529, looked up)
chain: MAKNTITKTLKLRIVRPYNSAEVEKIVADEKNNREKIALEKNKDKVKEACSKHLKVAAYCTTQVERNACLFCKARKLDDKFYQKLRGQFPDAVFWQEISEIFRQLQKQAAEIYNQSLIELYYEIFIKGKGIANASSVEHYLSDVCYTRAAELFKNAAIASGLRSKIKSNFRLKELKNMKSGLPTTKSDNFPIPLVKQKGGQYTGFEISNHNSDFIIKIPFGRWQVKKEIDKYRPWEKFDFEQVQKSPKPISLLLSTQRRKRNKGWSKDEGTEAEIKKVMNGDYQTSYIEVKRGSKIGEKSAWMLNLSIDVPKIDKGVDPSIIGGIDVGVKSPLVCAINNAFSRYSISDNDLFHFNKKMFARRRILLKKNRHKRAGHGAKNKLKPITILTEKSERFRKKLIERWACEIADFFIKNKVGTVQMENLESMKRKEDSYFNIRLRGFWPYAEMQNKIEFKLKQYGIEIRKVAPNNTSKTCSKCGHLNNYFNFEYRKKNKFPHFKCEKCNFKENAAYNAALNISNPKLKSTKEEP
notes: Cas12f (UnCas12f1 / Un1Cas12f1, also known as Cas14), full length, 529 amino acids, 61.5 kDa; plasmid Addgene #112500; catalytic D510 changed to alanine; three N-terminal and four C-terminal residues are not modelled; also called Cas12f D510A; Cas12f.2; source: E. coli BL21(DE3), purified (Ni-NTA, TEV cleavage, HiTrap SP, Superdex 200); not shown: 10xHis-MBP, N-terminal, cleaved
stoichiometry N [1]: 2

B2: Cas12f (UnCas12f1), used for the Cas12f-sgRNA binary complex (enzyme, UniProt A0A482D308 1-529, looked up)
chain: MAKNTITKTLKLRIVRPYNSAEVEKIVADEKNNREKIALEKNKDKVKEACSKHLKVAAYCTTQVERNACLFCKARKLDDKFYQKLRGQFPDAVFWQEISEIFRQLQKQAAEIYNQSLIELYYEIFIKGKGIANASSVEHYLSDVCYTRAAELFKNAAIASGLRSKIKSNFRLKELKNMKSGLPTTKSDNFPIPLVKQKGGQYTGFEISNHNSDFIIKIPFGRWQVKKEIDKYRPWEKFDFEQVQKSPKPISLLLSTQRRKRNKGWSKDEGTEAEIKKVMNGDYQTSYIEVKRGSKIGEKSAWMLNLSIDVPKIDKGVDPSIIGGIDVGVKSPLVCAINNAFSRYSISDNDLFHFNKKMFARRRILLKKNRHKRAGHGAKNKLKPITILTEKSERFRKKLIERWACEIADFFIKNKVGTVQMENLESMKRKEDSYFNIRLRGFWPYAEMQNKIEFKLKQYGIEIRKVAPNNTSKTCSKCGHLNNYFNFEYRKKNKFPHFKCEKCNFKENADYNAALNISNPKLKSTKEEP
notes: Cas12f (UnCas12f1 / Un1Cas12f1, also known as Cas14), full length, 529 amino acids; plasmid Addgene #112500; The methods say only 'Cas12f proteins' for the binary complex, set against 'Cas12f D510A mutant proteins' for the ternary complex; also called Un1Cas12f1; wild-type Cas12f; source: E. coli BL21(DE3), purified (Ni-NTA, TEV cleavage, HiTrap SP, Superdex 200); not shown: 10xHis-MBP, …
binding result [2]: binds

B3: sgRNA + 60-bp target dsDNA (TTTA PAM) (mixed)
RNA: CUUCACUGAUAAAGUGGAGAACCGCUUCACCAAAAGCUGUCCCUUAGGGGAUUAGAACUUGAGUGAAGGUGGGCUGCUUGCAUCAGCCUAAUGUCGAGAAGUGCUUUCUUCGGAAAGUAACCCUCGAAACAAAUUCAUUUUUCCUCUCCAAUUCUGCACAAGAAAGUUGCAGAACCCGAAUAGACGAAUGAAGGAAUGCAACAGUUGACCCAACGUCGCCGG
DNA 1: GCTGATGCATCTAGATTGTGCACGCCGGCGACGTTGGGTCAACTTAAATACGTAAGGTGC
DNA 2: GCACCTTACGTATTTAAGTTGACCCAACGTCGCCGGCGTGCACAATCTAGATGCATCAGC
binding result [3]: binds

B4: sgRNA (full length, 222 nt) (structured_RNA)
RNA: CUUCACUGAUAAAGUGGAGAACCGCUUCACCAAAAGCUGUCCCUUAGGGGAUUAGAACUUGAGUGAAGGUGGGCUGCUUGCAUCAGCCUAAUGUCGAGAAGUGCUUUCUUCGGAAAGUAACCCUCGAAACAAAUUCAUUUUUCCUCUCCAAUUCUGCACAAGAAAGUUGCAGAACCCGAAUAGACGAAUGAAGGAAUGCAACAGUUGACCCAACGUCGCCGG
binding result [4]: binds
